Source: publication PMC12510807, “MUC1 drives ferroptosis resistance in ICC via Src‐mediated FSP1 deubiquitination and myristoylation” (Clinical and Translational Medicine, 2025)

Target: T1, recombinant Src (UniProt P12931 1-536)
T1 construct: the printed kinase domain limits 249-536 fit the 536-residue human protein; the tag on Src may differ between the three pull-downs; also called purified Src; source: recombinant, purified
Assay: pull-down; in vitro GST pull-down with recombinant or purified proteins; which partner bore GST is not told
Settings: both partners purified

binding result: binds
B1: purified NMT1 (enzyme, UniProt P30419 1-496, looked up)
chain: MADESETAVKPPAPPLPQMMEGNGNGHEHCSDCENEEDNSYNRGGLSPANDTGAKKKKKKQKKKKEKGSETDSAQDQPVKMNSLPAERIQEIQKAIELFSVGQGPAKTMEEASKRSYQFWDTQPVPKLGEVVNTHGPVEPDKDNIRQEPYTLPQGFTWDALDLGDRGVLKELYTLLNENYVEDDDNMFRFDYSPEFLLWALRPPGWLPQWHCGVRVVSSRKLVGFISAIPANIHIYDTEKKMVEINFLCVHKKLRSKRVAPVLIREITRRVHLEGIFQAVYTAGVVLPKPVGTCRYWHRSLNPRKLIEVKFSHLSRNMTMQRTMKLYRLPETPKTAGLRPMETKDIPVVHQLLTRYLKQFHLTPVMSQEEVEHWFYPQENIIDTFVVENANGEVTDFLSFYTLPSTIMNHPTHKSLKAAYSFYNVHTQTPLLDLMSDALVLAKMKGFDVFNALDLMENKTFLEKLKFGIGDGNLQYYLYNWKCPSMGAEKVGLVLQ
notes: Purified NMT1 protein of the GST pull-down with Src; source: purified
